Laboratory results: article PMC9406036, “The Catalytic Domain Mediates Homomultimerization of MT1-MMP and the Prodomain Interferes with MT1-MMP Oligomeric Complex Assembly” (Biomolecules, 2022)
Where “and” joins values, the source holds several entries; their conditions need not be identical. Identical values can stand only once.

Target: the molecule itself
Assay: SEC; preparative Sephacryl S-200 gel filtration (120 mL), IMAC-purified protein at about 1 mg/mL, 1 mL injected after a 0.22 µm filter, 50 mM Tris pH 7.4, 150 mM NaCl, 5 mM CaCl2, 10 µM CT1746; sizes from a calibration curve; fractions checked by SDS-PAGE

B1: WT-Cat-L (catalytic domain with the linker of MT1-MMP), secreted without the prodomain (domain or fragment)
chain: not shown
notes: human MT1-MMP (MMP-14) catalytic domain with the linker; Found as monomer, dimer and higher multimers on gel filtration; also called Cat-L construct; source: Drosophila S2 insect cells, purified (IMAC, Sephacryl S-200)
stoichiometry N: 2 and > 3
